According to patent US20250264483A1, “IDENTIFICATION OF PROTHROMBOTIC CONDITIONS” (Sydney Local Health District, priority 2020, published 2025):

System: healthy donor platelets
Experiment: Procoagulant platelet flow cytometry assay, healthy donor whole blood with VITT patient plasma
Type: cell-based, human
Settings: exogenous purified human PF4 25 μg/mL, VITT positive (n=6) and negative (n=8) cases (FIG. 12A)

B1: PF4: native human PF4 purified from expired platelet concentrate (protein, UniProt P02776 32-101, looked up)
Platelet factor 4: EAEEDGDLQCLCVKTTSQVRPRHITSLEVIKAGPHCPTAQLIATLKNGRKICLDLQAPLYKKIIKKLLES
- effect on flow cytometry assay results: did not alter the results
